Assay results: patent US20150110777A1 (PROTHENA BIOSCIENCES, published 2015)

T1: rat IAPP (rat, UniProt P12969 38-74)
T1 peptide (looked up): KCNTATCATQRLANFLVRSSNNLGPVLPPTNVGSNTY

T2: human islet-amyloid polypeptide (IAPP) (human)
T2 construct: also called hIAPP; human IAPP
T2 peptide: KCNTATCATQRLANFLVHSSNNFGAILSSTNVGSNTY

T3: peptide NTATCATQRL, amino acids 3-12 of hIAPP (human)
T3 peptide: NTATCATQRL


Legend:
rat IAPP [1] = target: T1, rat IAPP; assay: not stated for the murine antibody; sentence follows the Biacore results
[2] = target: T2, human islet-amyloid polypeptide (IAPP); assay: Biacore SPR; affinity compared with murine 6B8 as reference
Method: (§1) The affinity of various combinations of 6B8 humanized heavy chains and humanized light chain proteins for hIAPP was analyzed on a Biacore instrument. Biacore analysis was performed by preparing an anti-human CM5 chip following the protocol provided in the kit. The 6B8 antibody was captured such that the maximum binding of rat IAPP would not exceed 20-30 RU. […] Data was blank subtracted to both an irrelevant sensor not containing 6B8 and 0 IAPP concentration to account for the dissociation of 6B8 from the anti-human capture. Data was then analyzed using a global 1:1 fit.

rat IAPP [3] = target: T1, rat IAPP; assay: Biacore SPR; antibody captured on anti-human CM5 chip, rat IAPP flowed over; global 1:1 fit
Method: as §1

rat IAPP [4] = target: T1, rat IAPP; assay: Biacore SPR (result of Example 7 told in the description)
Method: as §1

[5] = target: T3, peptide NTATCATQRL, amino acids 3-12 of …; assay: epitope mapping against shorter peptides from hIAPP

fold difference in affinity against the murine 6B8 antibody (rat IAPP [1]) [fold] | fold of the affinity of the murine 6B8 antibody [2] [fold] | Kd (rat IAPP [3]) [nM] | koff (rat IAPP [3]) [s⁻¹] | kon (rat IAPP [3]) [M⁻¹ s⁻¹] | factor of affinity against the mouse-human chimeric 6B8 antibody (rat IAPP [4]) [fold] | binding result [5] | Binder
≤ 3 | ≤ 3 | 23.4 | 0.00513 | 220000 | – | – | chimeric mouse-human 6B8 antibody (antibody, V domains shown, Mouse 6B8 variable regions with human constant regions; captured on an anti-human chip; also called ch6B8; chimeric 6B8 antibody) VH: QVQLQQPGAELVKPGASVRLSCKASGYTFTSYWMHWVKQRPGQGLEWLGEINPRNGHSNYNEKIRNKATLTADTSSSTVSMQLSSLTSEDSAVYYCTVNRGFYYFFDVWGTGTTVTVSS VL: DVLMTQSPLSLPVSLGDQASISCRSSQSIAHSNGNTYLEWYLQKPGQSPKLLIYKVSNRFSGVPDRFSGSGSGTDFTLKISRVEAEDLGVYYCFQGSHIPRTFGGGTKLEIKR
≤ 3 | ≤ 3 | 31.2 | 0.00832 | 266000 | ≤ 1.5 | – | humanized 6B8 H2L1 antibody (antibody, V domains shown, Only variable regions are tied to the tested antibody; also called h6B8-H2L1; h6B8 H2L1) VH: QVQLQQSGAEVKKPGASVKVSCKASGYTFTSYWMHWVRQRPGQGLEWMGEINPRNGHSNYNEKIRNRVTMTADTSTSTVYMELSSLRSEDTAVYYCTVNRGFYYFFDVWGQGTTVTVSS VL: DVLMTQSPLSLPVTPGEPASISCRSSQSIAHSNGNTYLEWYLQKPGQSPQLLIYKVSNRFSGVPDRFSGSGSGTDFTLKISRVEAEDVGVYYCFQGSHIPRTFGGGTKLEIKR
– | – | – | – | – | – | binds | murine 6B8 antibody (LA21-6B8) (antibody, V domains shown, also called m6B8; mouse 6B8) VH: QVQLQQPGAELVKPGASVRLSCKASGYTFTSYWMHWVKQRPGQGLEWLGEINPRNGHSNYNEKIRNKATLTADTSSSTVSMQLSSLTSEDSAVYYCTVNRGFYYFFDVWGTGTTVTVSS VL: DVLMTQSPLSLPVSLGDQASISCRSSQSIAHSNGNTYLEWYLQKPGQSPKLLIYKVSNRFSGVPDRFSGSGSGTDFTLKISRVEAEDLGVYYCFQGSHIPRTFGGGTKLEIKR
